The text below walks through data of the MegaScale stability set (Tsuboyama et al. 2023).

The chains are these.
B1: HEEH_KT_rd6_3546 (parent)
chain: SEEDKEREHWERLNRDFELRVLDTTFIAHHAEEVIKLLRWLEK

Variants of B1 are the subject of the data set. Description: folding stability dG (cDNA display proteolysis); higher = more stable. To be noted: PBS, room temperature.
In the case of SEEDKEREHWERLNRDFELRVLDTTFIGHHAEEVIKLLRWLEK [A28G], the “folding stability dG” value turned out to be 1.01 kcal/mol.
Then SEEDKEREHWERLNRDFELRVLDTTFIHHHAEEVIKLLRWLEK [A28H], with 0.802 kcal/mol.
With SEEDKEREHWERLNRDFELRVLDTTFIFHHAEEVIKLLRWLEK [A28F], the “folding stability dG” value came to 1.94 kcal/mol.
With SEEDKEREHWERLNRDFELRVLDTTFIEHHAEEVIKLLRWLEK [A28E], the “folding stability dG” value worked out at 0.888 kcal/mol.
Then SEEDKEREHWERLNRDFELRVLDTTFIDHHAEEVIKLLRWLEK [A28D], with 0.777 kcal/mol; and SEEDKEREHWERLNRDFELRVLDTTFICHHAEEVIKLLRWLEK [A28C], with 2.23 kcal/mol.
The result for SEEDKEREHWERLNRDFELRVLDTTFIKHHAEEVIKLLRWLEK [A28K] reads 1.29 kcal/mol; that for SEEDKEREHWERLNRDFELRVLDTTFIIHHAEEVIKLLRWLEK [A28I], 1.82 kcal/mol.
The result for SEEDKEREHWERLNRDFELRVLDTWFIAHHAEEVIKLLRWLEK [T25W] reads 2.16 kcal/mol; that for SEEDKEREHWERLNRDFELRVLDTHFIAHHAEEVIKLLRWLEK [T25H], 1.29 kcal/mol.
As for SEEDKEREHWERLNRDFELRVLDTIFIAHHAEEVIKLLRWLEK [T25I], the “folding stability dG” value amounted to 1.7 kcal/mol.
Then SEEDKEREHWERLNRDFELRVLDTQFIAHHAEEVIKLLRWLEK [T25Q], with 0.911 kcal/mol; and SEEDKEREHWERLNRDFELRVLDTPFIAHHAEEVIKLLRWLEK [T25P], with 0.992 kcal/mol.
Then SEEDKEREHWERLNRDFELRVLDTYFIAHHAEEVIKLLRWLEK [T25Y], with 1.65 kcal/mol; and SEEDKEREHWERLNRDFELRVLDTMFIAHHAEEVIKLLRWLEK [T25M], with 1.36 kcal/mol.
Then SEEDKEREHWERLNRDFELRVLDTKFIAHHAEEVIKLLRWLEK [T25K], with 1.16 kcal/mol; and SEEDKEREHWERLNRDFELRVLDTRFIAHHAEEVIKLLRWLEK [T25R], with 1.41 kcal/mol.
Regarding SEEDKEREHWERLNRDFELRVLDTNFIAHHAEEVIKLLRWLEK [T25N], the “folding stability dG” value came to 1.26 kcal/mol.
As for SEEDKEREHWERLNRDFELRVLDTLFIAHHAEEVIKLLRWLEK [T25L], the “folding stability dG” value stood at 2.18 kcal/mol.
The result for SEEDKEREHWERLNRDFELRVLDTGFIAHHAEEVIKLLRWLEK [T25G] reads 0.905 kcal/mol; that for SEEDKEREHWERLNRDFELRVLDTSFIAHHAEEVIKLLRWLEK [T25S], 1.52 kcal/mol.
Then SEEDKEREHWERLNRDFELRVLDTVFIAHHAEEVIKLLRWLEK [T25V], with 1.61 kcal/mol.
Consider SEEDKEREHWERLNRDFELRVLDTTDIAHHAEEVIKLLRWLEK [F26D], for which the “folding stability dG” value is 0.665 kcal/mol.
With SEEDKEREHWERLNRDFELRVLDTTYIAHHAEEVIKLLRWLEK [F26Y], the “folding stability dG” value worked out at 1.04 kcal/mol.
With SEEDKEREHWERLNRDFELRVLDTTMIAHHAEEVIKLLRWLEK [F26M], the “folding stability dG” value turned out to be 0.674 kcal/mol.
Take SEEDKEREHWERLNRDFELRVLDTTEIAHHAEEVIKLLRWLEK [F26E]: the “folding stability dG” value is 0.588 kcal/mol.
With SEEDKEREHWERLNRDFELRVLDTTAIAHHAEEVIKLLRWLEK [F26A], the “folding stability dG” value was found to be 0.696 kcal/mol.
Take SEEDKEREHWERLNRDFELRVLDTTQIAHHAEEVIKLLRWLEK [F26Q]: the “folding stability dG” value came out at 0.576 kcal/mol.
Then SEEDKEREHWERLNRDFELRVLDTTIIAHHAEEVIKLLRWLEK [F26I], with 0.875 kcal/mol; and SEEDKEREHWERLNRDFELRVLDTTKIAHHAEEVIKLLRWLEK [F26K], with 0.504 kcal/mol.
SEEDKEREHWERLNRDFELRVLDTTLIAHHAEEVIKLLRWLEK [F26L]: the “folding stability dG” value came out at 0.925 kcal/mol.
The result for SEEDKEREHWERLNRDFELRVLDTTRIAHHAEEVIKLLRWLEK [F26R] reads 0.974 kcal/mol; that for SEEDKEREHWERLNRDFELRVLDTTTIAHHAEEVIKLLRWLEK [F26T], 0.642 kcal/mol; that for SEEDKEREHWERLNRDFELRVLDTTGIAHHAEEVIKLLRWLEK [F26G], 0.568 kcal/mol.
Consider SEEDKEREHWERLNRDFELRVLDTTSIAHHAEEVIKLLRWLEK [F26S], for which the “folding stability dG” value amounted to 0.703 kcal/mol.
Then SEEDKEREHWERLNRDFELRVLDTTVIAHHAEEVIKLLRWLEK [F26V], with 0.759 kcal/mol; and SEEDKEREHWERLNRDFELRVLDTTHIAHHAEEVIKLLRWLEK [F26H], with 0.83 kcal/mol.
The result for SEEDKEREHWERLNRDFELRVLDTTNIAHHAEEVIKLLRWLEK [F26N] reads 0.663 kcal/mol.
In the case of SEEDKEREHWERLNRDFELRVLDTTPIAHHAEEVIKLLRWLEK [F26P], the “folding stability dG” value is 0.393 kcal/mol.
For SEEDKEREHWERLNRDFELRVLDTTWIAHHAEEVIKLLRWLEK [F26W], the “folding stability dG” value is 1.7 kcal/mol.
The result for SEEDKEREHWERLNRDFELRVLDTTFKAHHAEEVIKLLRWLEK [I27K] reads 0.613 kcal/mol; that for SEEDKEREHWERLNRDFELRVLDTTFLAHHAEEVIKLLRWLEK [I27L], 1.37 kcal/mol; that for SEEDKEREHWERLNRDFELRVLDTTFMAHHAEEVIKLLRWLEK [I27M], 1.12 kcal/mol.
Take SEEDKEREHWERLNRDFELRVLDTTFHAHHAEEVIKLLRWLEK [I27H]: the “folding stability dG” value amounted to 0.648 kcal/mol.
Then SEEDKEREHWERLNRDFELRVLDTTFPAHHAEEVIKLLRWLEK [I27P], with 0.57 kcal/mol.
Then SEEDKEREHWERLNRDFELRVLDTTFGAHHAEEVIKLLRWLEK [I27G], with 0.669 kcal/mol.
The result for SEEDKEREHWERLNRDFELRVLDTTFEAHHAEEVIKLLRWLEK [I27E] reads 0.508 kcal/mol.
As for SEEDKEREHWERLNRDFELRVLDTTFVAHHAEEVIKLLRWLEK [I27V], the “folding stability dG” value was 0.996 kcal/mol.
Consider SEEDKEREHWERLNRDFELRVLDTTFTAHHAEEVIKLLRWLEK [I27T], for which the “folding stability dG” value came out at 0.562 kcal/mol.
SEEDKEREHWERLNRDFELRVLDTTFYAHHAEEVIKLLRWLEK [I27Y]: the “folding stability dG” value worked out at 1.25 kcal/mol.
In the case of SEEDKEREHWERLNRDFELRVLDTTFQAHHAEEVIKLLRWLEK [I27Q], the “folding stability dG” value came out at 0.497 kcal/mol.
With SEEDKEREHWERLNRDFELRVLDTTFDAHHAEEVIKLLRWLEK [I27D], the “folding stability dG” value is 0.608 kcal/mol.
On to SEEDKEREHWERLNRDFELRVLDTTFSAHHAEEVIKLLRWLEK [I27S], for which the “folding stability dG” value is 0.654 kcal/mol.
The result for SEEDKEREHWERLNRDFELRVLDTTFFAHHAEEVIKLLRWLEK [I27F] reads 1.58 kcal/mol; that for SEEDKEREHWERLNRDFELRVLDTTFAAHHAEEVIKLLRWLEK [I27A], 0.784 kcal/mol.
In the case of SEEDKEREHWERLNRDFELRVLDTTFCAHHAEEVIKLLRWLEK [I27C], the “folding stability dG” value came to 2.33 kcal/mol.
As to SEEDKEREHWERLNRDFELRVLDTTFWAHHAEEVIKLLRWLEK [I27W], the “folding stability dG” value was determined as 1.88 kcal/mol.
Turning to SEEDKEREHWERLNRDFELRVLDTTFRAHHAEEVIKLLRWLEK [I27R], the “folding stability dG” value was 0.466 kcal/mol.
The result for SEEDKEREHWERLNRDFELRVLDTTFNAHHAEEVIKLLRWLEK [I27N] reads 0.776 kcal/mol.
